B1: GpH7-A5/GpH7-B3 variant Y300_13S/GpL16-k0 (He Ab) (antibody, human IgG1, kappa)
heavy 1: not shown
heavy 2: not shown
light: DIVMTQSPLSLPVTPGEPASISCQASESLVHSNRNTYLHWYLQKPGQSPQLLIYKVSNRFSGVPDRFSGSGSGTDFTLKISRVEAEDVGVYYCSQNTHVPPTFGQGTKVEIERTVAAPSVFIFPPSDEQLKSGTASVVCLLNNFYPREAKVQWKVDNALQSGNSQESVTEQDSKDSTYSLSSTLTLSKADYEKHKVYACEVTHQGLSSPVTKSFNRGEC
notes: Heterodimerized anti-glypican-3 IgG1; the mutation stands in the GpH7-B3 chain only
B2: heterodimerized antibody GpH7-A5/GpH7-B3 variant K334_09D/GpL16-k0 (antibody, human IgG1, kappa)
heavy 1: not shown
heavy 2: not shown
light: B1 light
notes: Substitution in only one H chain (GpH7-B3 side); also called He Ab
B3: heterodimerized antibody GpH7-A5/GpH7-B3 variant E333_09D/GpL16-k0 (antibody, human IgG1, kappa)
heavy 1: not shown
heavy 2: not shown
light: B1 light
notes: as for B2
B4: heterodimerized antibody GpH7-A5/GpH7-B3 variant E333_12R/GpL16-k0 (antibody, human IgG1, kappa)
heavy 1: not shown
heavy 2: not shown
light: B1 light
notes: as for B2
B5: GpH7-A5/GpH7-B3 variant G236_06M/GpL16-k0 (antibody, human IgG1, kappa)
heavy 1: not shown
heavy 2: not shown
light: B1 light
notes: He Ab: alteration in the GpH7-B3 H chain only; also called He Ab
B6: GpH7-A5/GpH7-B3 variant G237_11K/GpL16-k0 (antibody, human IgG1, kappa)
heavy 1: not shown
heavy 2: not shown
light: B1 light
notes: as for B5
B7: heterodimerized antibody GpH7-A5/GpH7-B3 variant K334_01G/GpL16-k0 (antibody, human IgG1, kappa)
heavy 1: not shown
heavy 2: not shown
light: B1 light
notes: as for B2
B8: heterodimerized antibody GpH7-A5/GpH7-B3 variant T335_12R/GpL16-k0 (antibody, human IgG1, kappa)
heavy 1: not shown
heavy 2: not shown
light: B1 light
notes: as for B2
B9: GpH7-A5/GpH7-B3 variant Y300_20W/GpL16-k0 (He Ab) (antibody, human IgG1, kappa)
heavy 1: not shown
heavy 2: not shown
light: B1 light
notes: as for B1
B10: heterodimerized antibody GpH7-A5/GpH7-B3 variant E333_15Y/GpL16-k0 (antibody, human IgG1, kappa)
heavy 1: not shown
heavy 2: not shown
light: B1 light
notes: as for B2
B11: heterodimerized antibody GpH7-A5/GpH7-B3 variant E333_14T/GpL16-k0 (antibody, human IgG1, kappa)
heavy 1: not shown
heavy 2: not shown
light: B1 light
notes: as for B2
B12: GpH7-A5/GpH7-B3 variant Y300_11K/GpL16-k0 (He Ab) (antibody, human IgG1, kappa)
heavy 1: not shown
heavy 2: not shown
light: B1 light
notes: as for B1
B13: heterodimerized antibody GpH7-A5/GpH7-B3 variant I336_03V/GpL16-k0 (antibody, human IgG1, kappa)
heavy 1: not shown
heavy 2: not shown
light: B1 light
notes: as for B2
B14: heterodimerized antibody GpH7-A5/GpH7-B3 variant T335_11K/GpL16-k0 (antibody, human IgG1, kappa)
heavy 1: not shown
heavy 2: not shown
light: B1 light
notes: as for B2
B15: heterodimerized antibody GpH7-A5/GpH7-B3 variant T335_06M/GpL16-k0 (antibody, human IgG1, kappa)
heavy 1: not shown
heavy 2: not shown
light: B1 light
notes: as for B2
B16: heterodimerized antibody GpH7-A5/GpH7-B3 variant E333_08L/GpL16-k0 (antibody, human IgG1, kappa)
heavy 1: not shown
heavy 2: not shown
light: B1 light
notes: as for B2
B17: GpH7-A5/GpH7-B3 variant G237_12R/GpL16-k0 (antibody, human IgG1, kappa)
heavy 1: not shown
heavy 2: not shown
light: B1 light
notes: as for B5
B18: GpH7-A5/GpH7-B3 variant G236_05P/GpL16-k0 (antibody, human IgG1, kappa)
heavy 1: not shown
heavy 2: not shown
light: B1 light
notes: as for B5

Key:
[1] = target: T1, FcγRIa extracellular domain with C-terminal His tag (human, UniProt P12314 16-292); assay: SPR (Biacore), antibody captured on antigen-peptide chip, FcγR as analyte; relative binding
T1 construct: extracellular domain; Expressed in FreeStyle293 cells; analyte in the Biacore assay; also called FcgRI; 1a; not shown: His tag at the C terminus

[2] = target: T2, FcγRIIb extracellular domain with C-terminal His tag (human, UniProt P31994 43-217); assay: as above
T2 construct: extracellular domain; Expressed in FreeStyle293 cells; analyte in the Biacore assay; also called FcgRIIb; 2b; not shown: His tag at the C terminus
T2 sequence (looked up): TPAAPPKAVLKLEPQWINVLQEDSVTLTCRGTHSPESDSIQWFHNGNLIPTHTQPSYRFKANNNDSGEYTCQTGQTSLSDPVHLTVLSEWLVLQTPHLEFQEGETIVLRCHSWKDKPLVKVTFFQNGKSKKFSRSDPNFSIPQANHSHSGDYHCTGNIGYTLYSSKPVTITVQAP

[3] = target: T3, FcγRIa extracellular domain with C-terminal His tag (human, UniProt P12314 16-292); assay: SPR Biacore, relative binding amount
T3 construct: extracellular domain; Soluble receptor expressed in FreeStyle293 cells and used as analyte in Biacore; also called FcgRI; 1a; not shown: His tag at the C terminus

[4] = target: T4, FcγRIIb extracellular domain with C-terminal His tag (human, UniProt P31994 43-217); assay: SPR Biacore, relative binding amount
T4 construct: extracellular domain; Soluble receptor expressed in FreeStyle293 cells and used as analyte in Biacore; also called FcgRIIb; 2b; not shown: His tag at the C terminus
T4 sequence (looked up): T2 sequence (looked up)

[5] = target: T5, FcγRIIa R (FcγRIIa, allotype R: Arg at position 131) extracellular domain with C-terminal His tag (human, UniProt P12318 34-217); assay: ratio He/Con_2aR : He/Con_2b (FcgRIIa R over FcgRIIb), SPR Biacore
T5 construct: extracellular domain; also called FcgRIIa R; 2aR; not shown: His tag at the C terminus
T5 sequence (looked up): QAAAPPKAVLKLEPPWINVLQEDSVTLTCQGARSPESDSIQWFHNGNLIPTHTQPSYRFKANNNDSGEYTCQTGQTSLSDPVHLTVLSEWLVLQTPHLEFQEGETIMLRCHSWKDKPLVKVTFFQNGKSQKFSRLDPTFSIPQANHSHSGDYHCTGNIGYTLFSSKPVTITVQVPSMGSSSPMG
Method: (§1) The heterodimerized antibodies He Abs in which one of the H chains was introduced with an alteration were assayed for their binding activities to each activating FcγR and inhibitory FcγR according to the method described in Example 4. […] The activating FcγRs in FIGS. 26, 27, 28, and 29 are FcγRIa, FcγRIIa (R), FcγRIIa (H), and FcγRIIIa, respectively.
(§2) Analysis of interaction between objective antibody and the FcγR was carried out using Biacore T100 (GE Healthcare). HBS-EP+ (GE Healthcare) was used as the running buffer, and the measurement temperature was set to 25° C. Chips produced by immobilizing the antigen peptide by the amine coupling method to a Series S Sencor Chip CM5 (GE Healthcare), or alternatively, chips produced by allowing preliminarily biotinylated antigen peptides to interact with and immobilize onto a Series S Sensor Chip SA (certified) (GE Healthcare) were used. Antibodies of interest were captured onto an antigen peptide-immobilized chip, and allowed to interact to each FcγR diluted with running buffer. To regenerate and repeatedly use the chip, the antibodies captured on the chip were washed off by reacting 10 mM glycine-HCl, pH 1.5.

[6] = target: T5, FcγRIIa R (FcγRIIa, allotype R: Arg at …); assay: SPR Biacore, antibody captured, FcgR analyte; vs HeCon Ab GpH7-A5/GpH7-B3/GpL16-k0 = 100
Method: as §1, §2

[7] = target: T6, FcγRIIb extracellular domain with C-terminal His tag (human, UniProt P31994 43-217); assay: as above
T6 construct: extracellular domain; also called FcgRIIb; 2b; not shown: His tag at the C terminus
T6 sequence (looked up): T2 sequence (looked up)
Method: as §1, §2

Binder	He/Con_1a [3]	He/Con_2b [4]	also measured
B1			He/Con_1a [1]: 111 % of GpH7-A5/GpH7-B3/GpL16-k0 (=100); He/Con_2b [2]: 53.9 % of GpH7-A5/GpH7-B3/GpL16-k0 (=100)
B2	106 % of GpH7-A5/GpH7-B3/GpL16-k0 (=100)	94.8 % of GpH7-A5/GpH7-B3/GpL16-k0 (=100)	
B3	104 % of GpH7-A5/GpH7-B3/GpL16-k0 (=100)	94.3 % of GpH7-A5/GpH7-B3/GpL16-k0 (=100)	
B4	102 % of GpH7-A5/GpH7-B3/GpL16-k0 (=100)	80.4 % of GpH7-A5/GpH7-B3/GpL16-k0 (=100)	
B5			He_2aR/2b (IIaR/IIb) [5]: 1.26; He/Con_2aR [6]: 57.3 control = 100; He/Con_2b [7]: 45.5 control = 100
B6			He_2aR/2b (IIaR/IIb) [5]: 1.9; He/Con_2aR [6]: 17.1 control = 100
B7	104 % of GpH7-A5/GpH7-B3/GpL16-k0 (=100)	92.5 % of GpH7-A5/GpH7-B3/GpL16-k0 (=100)	
B8	113 % of GpH7-A5/GpH7-B3/GpL16-k0 (=100)	91.9 % of GpH7-A5/GpH7-B3/GpL16-k0 (=100)	
B9			He/Con_1a [1]: 112 % of GpH7-A5/GpH7-B3/GpL16-k0 (=100); He/Con_2b [2]: 84.1 % of GpH7-A5/GpH7-B3/GpL16-k0 (=100)
B10	101 % of GpH7-A5/GpH7-B3/GpL16-k0 (=100)	94.4 % of GpH7-A5/GpH7-B3/GpL16-k0 (=100)	
B11	102 % of GpH7-A5/GpH7-B3/GpL16-k0 (=100)	86.1 % of GpH7-A5/GpH7-B3/GpL16-k0 (=100)	
B12			He/Con_1a [1]: 107 % of GpH7-A5/GpH7-B3/GpL16-k0 (=100); He/Con_2b [2]: 51.6 % of GpH7-A5/GpH7-B3/GpL16-k0 (=100)
B13	105 % of GpH7-A5/GpH7-B3/GpL16-k0 (=100)	90.3 % of GpH7-A5/GpH7-B3/GpL16-k0 (=100)	
B14	111 % of GpH7-A5/GpH7-B3/GpL16-k0 (=100)	91 % of GpH7-A5/GpH7-B3/GpL16-k0 (=100)	
B15	107 % of GpH7-A5/GpH7-B3/GpL16-k0 (=100)	99.4 % of GpH7-A5/GpH7-B3/GpL16-k0 (=100)	
B16	102 % of GpH7-A5/GpH7-B3/GpL16-k0 (=100)	95 % of GpH7-A5/GpH7-B3/GpL16-k0 (=100)	
B17			He_2aR/2b (IIaR/IIb) [5]: 2.47; He/Con_2aR [6]: 24.2 control = 100
B18			He_2aR/2b (IIaR/IIb) [5]: 2.52; He/Con_2aR [6]: 47.9 control = 100; He/Con_2b [7]: 19 control = 100
